# Measurements taken from PMC2615086 (The Journal of Cell Biology, 2009).
# T1: Fic1-His6 (S. pombe, UniProt O94701 1-272)
# T1 sequence: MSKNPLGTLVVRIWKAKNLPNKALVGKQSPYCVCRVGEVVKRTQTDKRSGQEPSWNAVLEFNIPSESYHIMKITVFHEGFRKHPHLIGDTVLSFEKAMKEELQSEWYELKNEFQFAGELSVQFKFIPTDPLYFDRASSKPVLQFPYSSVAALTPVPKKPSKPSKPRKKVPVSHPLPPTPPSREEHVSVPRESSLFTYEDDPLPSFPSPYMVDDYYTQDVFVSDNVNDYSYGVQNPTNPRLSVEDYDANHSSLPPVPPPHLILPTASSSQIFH
# B1: MBP-Cdc15SH3 (domain or fragment)
# chain: SSMSLYGEYNKSQPQLSMQRSVSPNPLGPNRRSSSVLQSQKSTSSNTSNRNNGGYSGSRPSSEMGHRYGSMSGRSMRQVSQRSTSRARSPEPTNRNSVQSKNVDPRATFTAEGEPILGYVIALYDYQAQIPEEISFQKGDTLMVLRTQEDGWWDGEIINVPNSKRGLFPSNFVQTV
# Target: T1, Fic1-His6
# Experiment: quantitative in vitro binding
binder,measurement,value
B1,Kd,~3000 nM
